Source: paper PMC5553161

Molecular target: VAP-B (human (endogenous in Huh7)) (UniProt O95292)
Test: co-IP; lysates of Huh7 cells stably harboring wild-type, S225D or S225A SGRs immunoprecipitated with antibodies to NAP1L1, Bin1, VAP-A or VAP-B; Western blot for NS5A, quantified (n = 3)

Sequence of UniProt O95292 (O95292 whole entry): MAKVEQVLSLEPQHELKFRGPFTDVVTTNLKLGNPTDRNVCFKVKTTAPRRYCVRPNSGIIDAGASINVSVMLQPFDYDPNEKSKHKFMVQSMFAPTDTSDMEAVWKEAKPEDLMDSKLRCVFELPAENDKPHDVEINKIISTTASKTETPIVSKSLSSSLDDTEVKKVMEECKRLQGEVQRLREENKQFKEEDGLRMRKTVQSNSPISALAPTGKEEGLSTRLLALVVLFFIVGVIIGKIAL

Work on “One-Strep-tagged (OST) NS5A S225A of hepatitis C virus JFH-1 (genotype 2a) (natural protein)” yielded a reduction in the level bound, against wild type of 50%.
